We go through one molecule from patent CN112500478A.

This experiment addresses 非洲猪瘟病毒(African swine fever Virus, ASFV)全病毒 / 灭活非洲猪瘟病毒抗原.

B1: 抗非洲猪瘟病毒的ScFv抗体VH-VLλ6 (scFv)
scFv: MEVKLVESGGGLVQPGGSLRLSCVGSGVTVTSYTVSWVRQAPGKGLEWLAGNGSSSKTTVDSDSVRGRFFISRDNSQNTAYLQMNSLRTEDTARYYCVQTIDSDCTSRLWGPGVEVVVGGGGSGGMSQTVIQEPAMSVSPGGTVTLTCAFSSATVTISNYPGWYQQTPRQPPRQLIYGLSSRPTGVPSRFSGAISGNKATLTITGAQAEDEADYFCALYNAGSRYNYMFGGGTHLTVL
B1 had an OD450nm of 1.15 OD450nm.
